The source of these data is patent US8853367.

This test concerns the target chimeric receptor comprising mouse TNFR1 external domain (AA 1 to AA 210) linked to the transmembrane and intracellular domains of mouse RANK (AA 210 to AA 625) (mouse). Put plainly: cell-based or functional assay.

Chain of chimeric receptor comprising mouse TNFR1 external domain (AA 1 to AA 210) linked to the transmembrane and intracellular domains of mouse RANK (AA 210 to AA 625) (mouse) (chain, as listed by the source mutant): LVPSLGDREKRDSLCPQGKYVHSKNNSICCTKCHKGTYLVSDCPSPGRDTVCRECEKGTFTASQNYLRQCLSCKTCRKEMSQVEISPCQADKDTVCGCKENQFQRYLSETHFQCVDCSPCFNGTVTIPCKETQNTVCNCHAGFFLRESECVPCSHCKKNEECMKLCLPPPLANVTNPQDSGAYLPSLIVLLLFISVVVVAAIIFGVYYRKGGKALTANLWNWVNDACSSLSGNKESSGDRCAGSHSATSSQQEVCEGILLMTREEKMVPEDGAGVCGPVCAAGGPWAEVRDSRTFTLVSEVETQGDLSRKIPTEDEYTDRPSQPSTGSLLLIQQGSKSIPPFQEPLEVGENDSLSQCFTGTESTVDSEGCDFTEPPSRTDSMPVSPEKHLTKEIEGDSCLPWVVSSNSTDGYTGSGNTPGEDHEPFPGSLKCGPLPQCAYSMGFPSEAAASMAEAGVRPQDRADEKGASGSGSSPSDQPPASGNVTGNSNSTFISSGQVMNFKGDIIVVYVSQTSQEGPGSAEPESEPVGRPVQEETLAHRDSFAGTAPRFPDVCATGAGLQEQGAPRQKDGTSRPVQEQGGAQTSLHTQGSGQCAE

The substance “Recombinant mouse TNFα (410-TRNC-050, R&D Systems) (from UniProt P06804 84-235) (ligand)” showed an osteoclast formation, lowest TNFα concentration still active of 1 ng/mL.
